According to patent publication US20190064149A1, “CANCER EXAMINATION METHOD AND EXAMINATION KIT” (THE UNIVERSITY OF TOKYO, priority 2013, published 2019):
Entries after “also recorded” stand apart in the source; their conditions may differ.

What was measured:
Format in all cases: cell-based, human
RhoG = RhoG activity pull-down with ELMO2/GST beads in MT1-MMP knockdown A431 cells; conditions: MT1-MMP knockdown A431 cells after EGF stimulation
Source text: By using A431 cells whose MT1-MMP expression was knocked down by siRNA, an influence of Ephrin-A1-dependent EphA2 on an RhoG signaling downstream of the EGF receptor was studied.
A fusion protein of ELMO2 and GST, each serving as an effector of RhoG, was solid phased on glutathione beads and the RhoG activity in a cell suspension solubilized with RIPA was detected by pull-down using ELMO2/GST beads as a bait. Co-precipitated RhoG was detected using an anti-RhoG polyclonal antibody (Santa Cruz) and the RhoG activity was quantified by densitometry with Image J. An expression vector of ELMO2 was kindly given by Chihiro Sasakawa, professor of Division of Bacterial Infection, Medical Institute of Science, The University of Tokyo.

A431 cells [1] = assay: Migration activity of EGF-stimulated cells in a transwell chamber; conditions: EGF-stimulated MT1-MMP knockdown cells
Source text: No RhoG activity was detected from the cells not treated with EGF (A). […] Similar results were found in the SCC61 cells (C).

A431 cells [2] = assay: Cell growth assay, three-dimensional collagen gel culture and spheroid formation; conditions: three-dimensional culture in collagen gel and anchorage-independent spheroid formation
Description: Collagen I gel (3 mg/ml, Nitta Gelatin) extracted in acetic acid, a neutralization buffer (50 mM NaOH, 260 mM NaHCO3, 200 mM HEPES), and each of the two types of cells were mixed and the resulting mixture was seeded to satisfy 2.5×10^4/250 μl/48 well plate. After completion of the polymerization of the collagen gel, they were cultured for 7 days in 400 μl/well of a DMEM/1% FCS culture solution. After culturing, the collagen gel was dissolved with 0.1% collagenase. The cells were treated with trypsin to dissociate them into single cells and the number of the cells was counted using a Coulter counter.
The two types of the cells were each detached with trypsin from one another and the number of the cells was counted by a hemocytometer. They were seeded in a low adhesion plate (PrimeSurface (registered trademark), Sumitomo Bakelite) of each cell protein (100 cells/100 μl/96 well plate) and cultured for 7 days in a DMEM/1% FCS culture solution. The number of spheroid formation cells was obtained from their volume (½×long diameter×(short diameter)^2).

B1: Ephrin-A1: typical ligand of EphA2 (protein)
chain: DRHTVFWNSSNPKFRNEDYTIHVQLNDYVDIICPHYEDHSVADAAMEQYILYLVEHEEYQLCQPQSKDQVRWQCNRPSAKHGPEKLSEKFQRFTPFTLGKEFKEGHSYYYISKPIHQHEDRCLRLKVTVSGKITHSPQAHDNPQEKRLAADDPEVRVLHSIGHS
- RhoG activity (RhoG): significant decrease; also recorded: significantly reduced
- cell migration (A431 cells [1]): significantly suppressed
- growth of MT1-MMP knockdown cells (A431 cells [2]): significantly suppressed
